Results on 1 substance are retold here after article PMC6066304.

This test has as its target Arabidopsis thaliana plant cysteine oxidase 5 (Arabidopsis thaliana) (UniProt Q9LXT4).
Sequence of UniProt Q9LXT4 (Q9LXT4 whole entry): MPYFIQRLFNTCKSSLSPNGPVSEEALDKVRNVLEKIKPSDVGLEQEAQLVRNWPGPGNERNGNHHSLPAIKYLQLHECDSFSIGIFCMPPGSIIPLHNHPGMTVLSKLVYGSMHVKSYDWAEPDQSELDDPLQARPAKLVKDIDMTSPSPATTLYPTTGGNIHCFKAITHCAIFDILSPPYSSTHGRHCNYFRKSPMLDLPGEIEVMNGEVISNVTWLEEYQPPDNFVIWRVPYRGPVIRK

As for “AtRAP2(2–15), 14-amino acid peptide corresponding to the methionine excised N terminus of AtRAP2.2 and AtRAP2.12”, the Km for AtRAP2(2–15); initial rates of N-terminal cysteine oxidation by LC-MS, Michaelis–Menten fit with substrate inhibition, atmospheric O2, pH 8.0, 25 °C was found to be 0.16 mM.
